Experiments:
Format in all cases: cell-based
[1] = test system: P5 cells (vascular endothelial cell line); test: AP-Del-1 conditioned medium added to cells, H33342 and C3-annexin V staining (Example 5); details: conditioned medium of Cos cells with AP fusion protein, 24 hours after addition
Description: (§1) cDNA for full-length Del-1 (SEQ ID NO: 4) was integrated into an alkaline phosphatase (AP) expression vector (APtag4) and then introduced into cultured Cos cells. As a control, an AP expression vector free from the cDNA for full-length Del-1 was used. The resulting culture supernatant was measured for AP activity, normalized for AP fusion protein concentration and then added to a culture of CRL cells (human melanoma cells) or P5 cells (vascular endothelial cell line) (instead of using direct gene transfer, Cos cells were allowed to produce a recombinant protein and the resulting conditioned medium was used, because CRL and P5 were low in the efficiency of gene transfer). At 24 hours after addition, the cells were stained with H33342 and with C3-annexin V for observation.

[2] = test system: CRL cells (human melanoma cells); test: as above; details: conditioned medium of Cos cells with AP fusion protein, 24 hours after addition
Description: as §1

Cos cells [3] = test: LDH activity in supernatant of Cos cells transformed with cDNA for Del-1 or its parts (Example 7); details: APtag4 vector, medium replaced 24 hours after gene transfer, measured after further one hour
Description: cDNA for full-length Del-1 (SEQ ID NO: 4) was integrated into an AP expression vector (APtag4) and then introduced into cultured Cos cells. Likewise, cDNA for a part of Del-1 was also integrated into APtag4 and then introduced into cultured Cos cells. As a control, an AP expression vector free from the above cDNA for full-length Del-1 or a part thereof was used. It should be noted that the members each used as a part of Del-1 were EGF-like domains in the full-length Del-1 protein, i.e., EGF1 (E1; cDNA: SEQ ID NO: 26, amino acid sequence: SEQ ID NO: 27), EGF2 (E2; cDNA: SEQ ID NO: 28, amino acid sequence: SEQ ID NO: 29) and EGF3 (E3; cDNA: SEQ ID NO: 6, amino acid sequence: SEQ ID NO: 7), a fusion protein between discoidin I-like domains, i.e., Discoidin1 and Discoidin2 (C1C2; cDNA: SEQ ID NO: 30, amino acid sequence: SEQ ID NO: 31), an amino acid substitution (D136E) mutant of the above full-length Del-1 (Del1m; cDNA: SEQ ID NO: 32, amino acid sequence: SEQ ID NO: 33), as well as an amino acid substitution (D136E) mutant of E3, i.e., E3 D136E (E3m; cDNA: SEQ ID NO: 34, amino acid sequence: SEQ ID NO: 35). […] At 24 hours after gene transfer, the medium in each case was replaced with fresh culture medium and, after further one hour, the supernatant was measured for LDH activity. A cell lysate was prepared for each case and measured for LacZ activity. […]

Cos cells [4] = test: Del-1 gene transfer into cultured Cos cells, chromosomal DNA electrophoresis and silver staining (Example 2); details: Cos cells forced to express Del-1 (pcDNA3)
Description: cDNA for full-length Del-1 (SEQ ID NO: 4) was integrated into an expression vector, pcDNA3 (Invitrogen), and then introduced into cultured Cos cells. As a control, pcDNA3 free from the cDNA for full-length Del-1 was used. For normalization of the gene transfer rate, DNA carrying the LacZ gene was also introduced simultaneously. The results obtained are shown in FIG. 2 (left and right panels).
Left panel: Chromosomal DNAs were taken from the cells and electrophoresed on a polyacrylamide gel, followed by silver staining.

[5] = test system: P5 cells (vascular endothelial cell line); test: AP-Del-1 conditioned medium added to cells, chromosomal DNA electrophoresis and silver staining (Example 6); details: 24 hours after addition
Description: as §1, with “AP” for “alkaline phosphatase (AP)”, “addition, chromosomal DNAs were taken from” for “addition,”, “cells” for “cells were stained with H33342”, “electrophoresed on a polyacrylamide gel, followed by silver staining.” for “with C3-annexin V for observation.”

[6] = test system: CRL cells (human melanoma cells); test: as above; details: 24 hours after addition
Description: as §1, with “AP” for “alkaline phosphatase (AP)”, “addition, chromosomal DNAs were taken from” for “addition,”, “cells” for “cells were stained with H33342”, “electrophoresed on a polyacrylamide gel, followed by silver staining.” for “with C3-annexin V for observation.”

Cos cells [7] = test: eGFP-Del-1 expression vector in cultured Cos cells, H33342 staining (Example 4); details: expressed as eGFP-Del-1 fusion protein, 24 hours after gene transfer
Description: An expression vector designed to carry cDNA encoding eGFP-Del-1 (a fusion protein between eGFP and full-length Del-1) was introduced into cultured Cos cells. At 24 hours after gene transfer, the cells were fixed and stained with H33342.
This would mean that Del-1 secreted from the cells receiving Del-1 gene transfer would also act on their adjacent cells to thereby induce apoptosis in these cells.

Cos cells [8] = test: Del-1 gene transfer into cultured Cos cells, H33342 and C3-annexin V staining (Example 3); details: 24 hours after gene transfer
Description: cDNA for full-length Del-1 (SEQ ID NO: 4) was integrated into an expression vector and then introduced into cultured Cos cells. At 24 hours after gene transfer, the cells were stained with H33342 and with C3-annexin V (annexin V conjugated with the fluorescent dye C3) and then observed under a fluorescent microscope.
It should be noted that annexin V is capable of binding to phosphatidylserine, a component of cell membranes, while phosphatidylserine is known to leak (to be localized) outside of the cell membrane when the cells undergo apoptosis.

Cos cells [9] = test: Del-1 gene transfer into cultured Cos cells, H33342 nuclear staining, phase contrast and fluorescent microscopy (Example 1); details: 24 hours after gene transfer of cDNA in pcDNA3
Description: cDNA for full-length Del-1 (SEQ ID NO: 4) was integrated into an expression vector, pcDNA3 (Invitrogen), and then introduced into cultured Cos cells. As a control, pcDNA3 free from the cDNA for full-length Del-1 was used. At 24 hours after gene transfer, the cells were stained with H33342 (Hoechst) for cell nuclear staining and observed under a phase contrast microscope (transmission image) and a fluorescent microscope (H33342).

B1: full-length Del-1: developmentally regulated endothelial cell locus-1 protein, extracellular matrix protein, amino acid sequence SEQ ID NO: 5 (protein, listed as Mus musculus)
chain: MKHLVAAWLLVGLSLGVPQFGKGDICNPNPCENGGICLSGLADDSFSCECPEGFAGPNCSSVVEVASDEEKPTSAGPCIPNPCHNGGTCEISEAYRGDTFIGYVCKCPRGFNGIHCQHNINECEAEPCRNGGICTDLVANYSCECPGEFMGRNCQYKCSGPLGIEGGIISNQQITASSTHRALFGLRKWYPYYARLNKKGLINAWTAAENDRWPWIQINLQRKMRVTGVITQGAKRIGSPEYIKSYKIAYSNDGKTWAMYKVKGTNEEMVFRGNVDNNTPYANSFTPPIKAQYVRLYPQICRRHCTLRMELLGCELSGCSEPLGMKSGHIQDYQITASSVFRTLNMDMFTWEPRKARLDKQGKVNAWTSGHNDQSQWLQVDLLVPTKVTGIITQGAKDFGHVQFVGSYKLAYSNDGEHWMVHQDEKQRKDKVFQGNFDNDTHRKNVIDPPIYARFIRILPWSWYGRITLRSELLGCAEEE
[1]
  apoptosis by H33342 and C3-annexin V staining: these cells underwent apoptosis
[2]
  apoptosis by H33342 and C3-annexin V staining: these cells underwent apoptosis
Cos cells [3]
  increase in LDH activity of supernatant, normalized by LacZ activity: increase in LDH activity
Cos cells [4]
  DNA ladder pattern indicative of apoptosis: ladder pattern indicative of apoptosis was observed
[5]
  DNA ladder pattern indicative of apoptosis: ladder pattern indicative of apoptosis was observed
[6]
  DNA ladder pattern indicative of apoptosis: ladder pattern indicative of apoptosis was observed
Cos cells [7]
  apoptosis (chromosomal aggregation, H33342) in cells expressing the fusion protein: found to undergo apoptosis
Cos cells [8]
  apoptosis by H33342 and C3-annexin V staining: these cells underwent apoptosis
Cos cells [9]
  chromosome aggregation (H33342 nuclear staining): chromosomes were aggregated
